Substrate: Nc1ncnc2c1ncn2[C@@H]1O[C@H](COP(=O)(O)OP(=O)(O)OP(=O)(O)O)[C@@H](O)[C@H]1O
Experiment: NADH-coupled ATPase assay (pyruvate kinase / lactate dehydrogenase)
Type: biochemical, Arabidopsis thaliana
Details: geldanamycin-sensitive activity, 25 mM HEPES pH 7.5, 5 mM MgCl2, 400 mM KCl, 0.03% Tween 20, 10% glycerol
Excerpt: NADH-coupled ATPase assay (pyruvate kinase / lactate dehydrogenase) on HSP90.7 (AtHSP90.7; mature form R73–L823)

[1] = HSP90.7^Δ22 (D488–G509 deleted by SpeI cleavage and religation; a SpeI-site scar may remain)

Row | Protein | Km | kcat | kcat/Km | Km [1] | kcat [1] | kcat/Km [1]
1 | HSP90.7 (AtHSP90.7; mature form R73–L823) (Arabidopsis thaliana) (protein, predicted mature form R73-L823, signal peptide removed, vector p11, E. coli BL21(DE3)-pRIL, His6-tag cut with TEV protease, size-exclusion purified) RSNAEKFEFQAEVSRLMDIIINSLYSNKDIFLRELISNASDALDKIRFLALTDKDVLGEGDTAKLEIQIKLDKAKKILSIRDRGIGMTKEDLIKNLGTIAKSGTSAFVEKMQSSGDLNLIGQFGVGFYSAYLVADYIEVISKHNDDSQYVWESKANGKFAVSEDTWNEPLGRGTEIRLHLRDEAGEYLEESKLKELVKRYSEFINFPISLWASKEVETEVPVEEDESADEETETTSTEEEKEEDAEEEDGEKKQKTKKVKETVYEWELLNDVKAIWLRSPKEVTEEEYTKFYHSLSKDFTDEKPMAWSHFNAEGDVEFKAVLYVPPKAPHDLYESYYNSNKANLKLYVRRVFISDEFDELLPKYLSFLKGLVDSDTLPLNVSREMLQQHSSLKTIKKKLIRKALDMIRKLAEEDPDEIHDDEKKDVEKSGENDEKKGQYTKFWNEFGKSVKLGIIEDAANRNRLAKLLRFETTKSDGKLTSLDQYIKRMKKSQKDIFYITGSSKEQLEKSPFLERLIKKGYEVIFFTDPVDEYLMQYLMDYEDKKFQNVSKEGLKVGKDSKDKELKEAFKELTKWWKGNLASENVDDVKISNRLADTPCVVVTSKFGWSANMERIMQSQTLSDANKQAYMRGKRVLEINPRHPIIKELKDRIASDPEDESVKETAQLMYQTALIESGFILTDPKDFAARIYNSVKSGLNISPDAVADEEIEAAEEPETSEATETKSDDLAGGLNIEAEPVEQQEENTKDEL | 0.77 ± 0.18 mM | 0.0377 ± 0.00283 s⁻¹ | 49 ± 15.2 M⁻¹ s⁻¹ |  |  | 
2 | HSP90.7 (AtHSP90.7; mature form R73–L823) (Arabidopsis thaliana; DEL488-509) (protein, predicted mature form R73-L823, signal peptide removed, vector p11, E. coli BL21(DE3)-pRIL, His6-tag cut with TEV protease, size-exclusion purified) RSNAEKFEFQAEVSRLMDIIINSLYSNKDIFLRELISNASDALDKIRFLALTDKDVLGEGDTAKLEIQIKLDKAKKILSIRDRGIGMTKEDLIKNLGTIAKSGTSAFVEKMQSSGDLNLIGQFGVGFYSAYLVADYIEVISKHNDDSQYVWESKANGKFAVSEDTWNEPLGRGTEIRLHLRDEAGEYLEESKLKELVKRYSEFINFPISLWASKEVETEVPVEEDESADEETETTSTEEEKEEDAEEEDGEKKQKTKKVKETVYEWELLNDVKAIWLRSPKEVTEEEYTKFYHSLSKDFTDEKPMAWSHFNAEGDVEFKAVLYVPPKAPHDLYESYYNSNKANLKLYVRRVFISDEFDELLPKYLSFLKGLVDSDTLPLNVSREMLQQHSSLKTIKKKLIRKALDMIRKLAEEDPQYTKFWNEFGKSVKLGIIEDAANRNRLAKLLRFETTKSDGKLTSLDQYIKRMKKSQKDIFYITGSSKEQLEKSPFLERLIKKGYEVIFFTDPVDEYLMQYLMDYEDKKFQNVSKEGLKVGKDSKDKELKEAFKELTKWWKGNLASENVDDVKISNRLADTPCVVVTSKFGWSANMERIMQSQTLSDANKQAYMRGKRVLEINPRHPIIKELKDRIASDPEDESVKETAQLMYQTALIESGFILTDPKDFAARIYNSVKSGLNISPDAVADEEIEAAEEPETSEATETKSDDLAGGLNIEAEPVEQQEENTKDEL |  |  |  | 0.44 ± 0.11 mM | 0.039 ± 0.0025 s⁻¹ | 89 ± 27.8 M⁻¹ s⁻¹

Source: paper PMC4265155, “A highly charged region in the middle domain of plant endoplasmic reticulum (ER)-localized heat-shock protein 90 is required for resistance to tunicamycin or high calcium-induced ER stresses” (Journal of Experimental Botany, 2014)
